The test system of data set [1] is Gal4(1-147) (Saccharomyces cerevisiae). Kind of data set: ensemble FRET titration. The following applies: FRET (Gal4): 130 mM NaCl, 10 mM Tris-HCl pH 8, 0.01% Tween 20, 10% glycerol, 0.5 nM substrate, PIFE (LexA): 130 mM NaCl, 10 mM Tris pH 8, 10% glycerol, 0.005% ….
Another data set deals with LexA. Nature of the data set: PIFE titration. The conditions noted are these: FRET (Gal4): 130 mM NaCl, 10 mM Tris-HCl pH 8, 0.01% Tween 20, 10% glycerol, 0.5 nM substrate, PIFE (LexA): 130 mM NaCl, 10 mM Tris pH 8, 10% glycerol, 0.005% ….

“601-Gal4-S hexasome (H2A-H2B proximal to Gal4 site)” showed a K half in data set [1] (hexasome, dimer-proximal site, smFRET kon 0.0052 s-1 nM-1, koff 0.37 s-1) of 47 nM.

In data set [1] (nucleosome, smFRET kon 0.011 s-1 nM-1, koff 0.32 s-1), 601-Gal4-S nucleosome gave a K half of 19.6 nM.

In the data set on LexA (hexasome, dimer-distal site), “601-LexA-W hexasome (H2A-H2B distal LexA site)” registered a K half of 0.25 nM.

For the substance DNA-LexA, the K half in the data set with LexA (naked DNA, Cy5-aminoC6-dT internal in reverse strand) turned out to be 0.3 nM.
